Key:
native gel or EMSA [1] = molecular target: the molecule itself; test: native gel or EMSA
native gel or EMSA [2] = molecular target: the molecule itself; test: native gel or EMSA; remark: listed apart in the source

B1: wild-type AcrB (natural protein, Escherichia coli)
chain: MPNFFIDRPIFAWVIAIIIMLAGGLAILKLPVAQYPTIAPPAVTISASYPGADAKTVQDTVTQVIEQNMNGIDNLMYMSSNSDSTGTVQITLTFESGTDADIAQVQVQNKLQLAMPLLPQEVQQQGVSVEKSSSSFLMVVGVINTDGTMTQEDISDYVAANMKDAISRTSGVGDVQLFGSQYAMRIWMNPNELNKFQLTPVDVITAIKAQNAQVAAGQLGGTPPVKGQQLNASIIAQTRLTSTEEFGKILLKVNQDGSRVLLRDVAKIELGGENYDIIAEFNGQPASGLGIKLATGANALDTAAAIRAELAKMEPFFPSGLKIVYPYDTTPFVKISIHEVVKTLVEAIILVFLVMYLFLQNFRATLIPTIAVPVVLLGTFAVLAAFGFSINTLTMFGMVLAIGLLVDDAIVVVENVERVMAEEGLPPKEATRKSMGQIQGALVGIAMVLSAVFVPMAFFGGSTGAIYRQFSITIVSAMALSVLVALILTPALCATMLKPIAKGDHGEGKKGFFGWFNRMFEKSTHHYTDSVGGILRSTGRYLVLYLIIVVGMAYLFVRLPSSFLPDEDQGVFMTMVQLPAGATQERTQKVLNEVTHYYLTKEKNNVESVFAVNGFGFAGRGQNTGIAFVSLKDWADRPGEENKVEAITMRATRAFSQIKDAMVFAFNLPAIVELGTATGFDFELIDQAGLGHEKLTQARNQLLAEAAKHPDMLTSVRPNGLEDTPQFKIDIDQEKAQALGVSINDINTTLGAAWGGSYVNDFIDRGRVKKVYVMSEAKYRMLPDDIGDWYVRAADGQMVPFSAFSSSRWEYGSPRLERYNGLPSMEILGQAAPGKSTGEAMELMEQLASKLPTGVGYDWTGMSYQERLSGNQAPSLYAISLIVVFLCLAALYESWSIPFSVMLVVPLGVIGALLAATFRGLTNDVYFQVGLLTTIGLSAKNAILIVEFAKDLMDKEGKGLIEATLDAVRMRLRPILMTSLAFILGVMPLVISTGAGSGAQNAVGTGVMGGMVTATVLAIFFVPVFFVVVRRRFSRKNEDIEHSHTVDHH
Native gel or EMSA [1]
  KX (trimer association constant, mole fraction): 1.6e+09

B2: AcrB_(L886G/E893G) (natural protein, Escherichia coli)
chain: MPNFFIDRPIFAWVIAIIIMLAGGLAILKLPVAQYPTIAPPAVTISASYPGADAKTVQDTVTQVIEQNMNGIDNLMYMSSNSDSTGTVQITLTFESGTDADIAQVQVQNKLQLAMPLLPQEVQQQGVSVEKSSSSFLMVVGVINTDGTMTQEDISDYVAANMKDAISRTSGVGDVQLFGSQYAMRIWMNPNELNKFQLTPVDVITAIKAQNAQVAAGQLGGTPPVKGQQLNASIIAQTRLTSTEEFGKILLKVNQDGSRVLLRDVAKIELGGENYDIIAEFNGQPASGLGIKLATGANALDTAAAIRAELAKMEPFFPSGLKIVYPYDTTPFVKISIHEVVKTLVEAIILVFLVMYLFLQNFRATLIPTIAVPVVLLGTFAVLAAFGFSINTLTMFGMVLAIGLLVDDAIVVVENVERVMAEEGLPPKEATRKSMGQIQGALVGIAMVLSAVFVPMAFFGGSTGAIYRQFSITIVSAMALSVLVALILTPALCATMLKPIAKGDHGEGKKGFFGWFNRMFEKSTHHYTDSVGGILRSTGRYLVLYLIIVVGMAYLFVRLPSSFLPDEDQGVFMTMVQLPAGATQERTQKVLNEVTHYYLTKEKNNVESVFAVNGFGFAGRGQNTGIAFVSLKDWADRPGEENKVEAITMRATRAFSQIKDAMVFAFNLPAIVELGTATGFDFELIDQAGLGHEKLTQARNQLLAEAAKHPDMLTSVRPNGLEDTPQFKIDIDQEKAQALGVSINDINTTLGAAWGGSYVNDFIDRGRVKKVYVMSEAKYRMLPDDIGDWYVRAADGQMVPFSAFSSSRWEYGSPRLERYNGLPSMEILGQAAPGKSTGEAMELMEQLASKLPTGVGYDWTGMSYQERLSGNQAPSLYAISLIVVFGCLAALYGSWSIPFSVMLVVPLGVIGALLAATFRGLTNDVYFQVGLLTTIGLSAKNAILIVEFAKDLMDKEGKGLIEATLDAVRMRLRPILMTSLAFILGVMPLVISTGAGSGAQNAVGTGVMGGMVTATVLAIFFVPVFFVVVRRRFSRKNEDIEHSHTVDHH
Native gel or EMSA [1]
  KX (trimer association constant, mole fraction): 1e+07
Native gel or EMSA [2]
  stoichiometry N: 3

B3: AcrB_(E893G/W895G) (natural protein, Escherichia coli)
chain: MPNFFIDRPIFAWVIAIIIMLAGGLAILKLPVAQYPTIAPPAVTISASYPGADAKTVQDTVTQVIEQNMNGIDNLMYMSSNSDSTGTVQITLTFESGTDADIAQVQVQNKLQLAMPLLPQEVQQQGVSVEKSSSSFLMVVGVINTDGTMTQEDISDYVAANMKDAISRTSGVGDVQLFGSQYAMRIWMNPNELNKFQLTPVDVITAIKAQNAQVAAGQLGGTPPVKGQQLNASIIAQTRLTSTEEFGKILLKVNQDGSRVLLRDVAKIELGGENYDIIAEFNGQPASGLGIKLATGANALDTAAAIRAELAKMEPFFPSGLKIVYPYDTTPFVKISIHEVVKTLVEAIILVFLVMYLFLQNFRATLIPTIAVPVVLLGTFAVLAAFGFSINTLTMFGMVLAIGLLVDDAIVVVENVERVMAEEGLPPKEATRKSMGQIQGALVGIAMVLSAVFVPMAFFGGSTGAIYRQFSITIVSAMALSVLVALILTPALCATMLKPIAKGDHGEGKKGFFGWFNRMFEKSTHHYTDSVGGILRSTGRYLVLYLIIVVGMAYLFVRLPSSFLPDEDQGVFMTMVQLPAGATQERTQKVLNEVTHYYLTKEKNNVESVFAVNGFGFAGRGQNTGIAFVSLKDWADRPGEENKVEAITMRATRAFSQIKDAMVFAFNLPAIVELGTATGFDFELIDQAGLGHEKLTQARNQLLAEAAKHPDMLTSVRPNGLEDTPQFKIDIDQEKAQALGVSINDINTTLGAAWGGSYVNDFIDRGRVKKVYVMSEAKYRMLPDDIGDWYVRAADGQMVPFSAFSSSRWEYGSPRLERYNGLPSMEILGQAAPGKSTGEAMELMEQLASKLPTGVGYDWTGMSYQERLSGNQAPSLYAISLIVVFLCLAALYGSGSIPFSVMLVVPLGVIGALLAATFRGLTNDVYFQVGLLTTIGLSAKNAILIVEFAKDLMDKEGKGLIEATLDAVRMRLRPILMTSLAFILGVMPLVISTGAGSGAQNAVGTGVMGGMVTATVLAIFFVPVFFVVVRRRFSRKNEDIEHSHTVDHH
Native gel or EMSA [1]
  KX (trimer association constant, mole fraction): 8.6e+06
Native gel or EMSA [2]
  stoichiometry N: 3

B4: AcrB_(L886G) (natural protein, Escherichia coli)
chain: MPNFFIDRPIFAWVIAIIIMLAGGLAILKLPVAQYPTIAPPAVTISASYPGADAKTVQDTVTQVIEQNMNGIDNLMYMSSNSDSTGTVQITLTFESGTDADIAQVQVQNKLQLAMPLLPQEVQQQGVSVEKSSSSFLMVVGVINTDGTMTQEDISDYVAANMKDAISRTSGVGDVQLFGSQYAMRIWMNPNELNKFQLTPVDVITAIKAQNAQVAAGQLGGTPPVKGQQLNASIIAQTRLTSTEEFGKILLKVNQDGSRVLLRDVAKIELGGENYDIIAEFNGQPASGLGIKLATGANALDTAAAIRAELAKMEPFFPSGLKIVYPYDTTPFVKISIHEVVKTLVEAIILVFLVMYLFLQNFRATLIPTIAVPVVLLGTFAVLAAFGFSINTLTMFGMVLAIGLLVDDAIVVVENVERVMAEEGLPPKEATRKSMGQIQGALVGIAMVLSAVFVPMAFFGGSTGAIYRQFSITIVSAMALSVLVALILTPALCATMLKPIAKGDHGEGKKGFFGWFNRMFEKSTHHYTDSVGGILRSTGRYLVLYLIIVVGMAYLFVRLPSSFLPDEDQGVFMTMVQLPAGATQERTQKVLNEVTHYYLTKEKNNVESVFAVNGFGFAGRGQNTGIAFVSLKDWADRPGEENKVEAITMRATRAFSQIKDAMVFAFNLPAIVELGTATGFDFELIDQAGLGHEKLTQARNQLLAEAAKHPDMLTSVRPNGLEDTPQFKIDIDQEKAQALGVSINDINTTLGAAWGGSYVNDFIDRGRVKKVYVMSEAKYRMLPDDIGDWYVRAADGQMVPFSAFSSSRWEYGSPRLERYNGLPSMEILGQAAPGKSTGEAMELMEQLASKLPTGVGYDWTGMSYQERLSGNQAPSLYAISLIVVFGCLAALYESWSIPFSVMLVVPLGVIGALLAATFRGLTNDVYFQVGLLTTIGLSAKNAILIVEFAKDLMDKEGKGLIEATLDAVRMRLRPILMTSLAFILGVMPLVISTGAGSGAQNAVGTGVMGGMVTATVLAIFFVPVFFVVVRRRFSRKNEDIEHSHTVDHH
Native gel or EMSA [1]
  KX (trimer association constant, mole fraction): 1.4e+07
Native gel or EMSA [2]
  stoichiometry N: 3

B5: AcrB_(W895G) (natural protein, Escherichia coli)
chain: MPNFFIDRPIFAWVIAIIIMLAGGLAILKLPVAQYPTIAPPAVTISASYPGADAKTVQDTVTQVIEQNMNGIDNLMYMSSNSDSTGTVQITLTFESGTDADIAQVQVQNKLQLAMPLLPQEVQQQGVSVEKSSSSFLMVVGVINTDGTMTQEDISDYVAANMKDAISRTSGVGDVQLFGSQYAMRIWMNPNELNKFQLTPVDVITAIKAQNAQVAAGQLGGTPPVKGQQLNASIIAQTRLTSTEEFGKILLKVNQDGSRVLLRDVAKIELGGENYDIIAEFNGQPASGLGIKLATGANALDTAAAIRAELAKMEPFFPSGLKIVYPYDTTPFVKISIHEVVKTLVEAIILVFLVMYLFLQNFRATLIPTIAVPVVLLGTFAVLAAFGFSINTLTMFGMVLAIGLLVDDAIVVVENVERVMAEEGLPPKEATRKSMGQIQGALVGIAMVLSAVFVPMAFFGGSTGAIYRQFSITIVSAMALSVLVALILTPALCATMLKPIAKGDHGEGKKGFFGWFNRMFEKSTHHYTDSVGGILRSTGRYLVLYLIIVVGMAYLFVRLPSSFLPDEDQGVFMTMVQLPAGATQERTQKVLNEVTHYYLTKEKNNVESVFAVNGFGFAGRGQNTGIAFVSLKDWADRPGEENKVEAITMRATRAFSQIKDAMVFAFNLPAIVELGTATGFDFELIDQAGLGHEKLTQARNQLLAEAAKHPDMLTSVRPNGLEDTPQFKIDIDQEKAQALGVSINDINTTLGAAWGGSYVNDFIDRGRVKKVYVMSEAKYRMLPDDIGDWYVRAADGQMVPFSAFSSSRWEYGSPRLERYNGLPSMEILGQAAPGKSTGEAMELMEQLASKLPTGVGYDWTGMSYQERLSGNQAPSLYAISLIVVFLCLAALYESGSIPFSVMLVVPLGVIGALLAATFRGLTNDVYFQVGLLTTIGLSAKNAILIVEFAKDLMDKEGKGLIEATLDAVRMRLRPILMTSLAFILGVMPLVISTGAGSGAQNAVGTGVMGGMVTATVLAIFFVPVFFVVVRRRFSRKNEDIEHSHTVDHH
Native gel or EMSA [1]
  KX (trimer association constant, mole fraction): 2.2e+07
Native gel or EMSA [2]
  stoichiometry N: 3

— paper PMC4067148 (Biochemistry, 2014)
